These are literature values, as cited in patent publication US11376231B2, “Compositions of bioactive fulvate fractions and uses thereof” (OMNI BIOCEUTICAL INNOVATIONS, INC., priority 2016, dated 2022).

Where two headings read alike, the source gives them in different places.

In this series the test system is chronic wounds. Further details: key: N.S. = not statistically significant.

B1: TGF-β2: transforming growth factor-β2 (protein, UniProt P61812 303-414, looked up)
Transforming growth factor …: ALDAAYCFRNVQDNCCLRPLYIDFKRDLGWKWIHEPKGYNANFCAGACPYLWSSDTQHSRVLSLYNTINPEASASPCCVSQDLEPLTILYYIGKTPKIEQLSNMIVKSCKCS
modifications: Transforming growth factor beta-2
Take B1: the Results result (venous (36), 2.5 μg/cm^2 three times per week, Robson et al.) is listed as “N.S”.

B2: PDGF-BB: platelet-derived growth factor BB (protein, UniProt P01127 82-190, looked up)
Platelet-derived growth …: SLGSLTIAEPAMIAECKTRTEVFEISRRLIDRTNANFLVWPPCVEVQRCSGCCNNRNVQCRPTQVQLRPVQVRKIEIVRKKPIFKKATVTLEDHLACKCETVAAARPVT
modifications: homodimer
For B2, the Results result runs as follows: (pressure (20), 1, 10, and 100 μg/mL daily, Robson et al.) “N.S”; (pressure (45), 1 and 3 μg/mL daily, Mustoe et al.) “N.S”.
